According to the RNAGym collection of RNA variant scans (doi:10.7554/elife.80360):

B1: CPEB3 Ribozyme (parent)
chain: GGGGGCCACAGCAGAAGCGUUCACGUCGCGGCCCCUGUCAGAUUCUGGUGAAUCUGCGAAUUCUGCUGU

Variants of: B1
Assay: self-cleavage, relative activity (ratio to wild type); higher = more cleavage; co-transcriptional

Variant	self-cleavage
G3A G37U	0.0837
G3A A13U	0.339
G3A A13G	0.596
G3A C22A	0.0741
G3A C22G	0.0453
G2U G19A	0.0693
G2U G19C	0.0206
G2U G19U	0.0651
G3A A8U	0.697
G2U G50U	0.0728
G2U G50C	0.0712
G3A C45U	0.634
G3A C7U	0.298
G3A G31A	0.224
G3A G31C	0.122
G2U U44A	0.0745
G2U U44C	0.067
G2U U44G	0.0788
G3A A16U	0.185
G3A A16C	0.0704
G2U U67G	0.116

Variant	self-cleavage
G2U U67C	0.107
G2U U67A	0.127
G3A G14C	0.159
G3A C63A	0.331
G3A C63G	0.317
G3A C24U	0.188
G3A C24A	0.153
G3A C24G	0.0795
G3A A51C	0.413
G3A A51U	0.651
G3A A10U	0.889
G3A A10C	0.876
G3A A10G	0.679
G2U G25U	0.0175
G2U G25C	0.0157
G2U G25A	0.0393
G3A G19C	0.0671
G3A G19U	0.092
G3A G19A	0.105
G3A A15G	0.635
G3A A15U	0.337

Variant	self-cleavage
G3A A15C	0.308
G3A C32U	0.302
G3A C32A	0.191
G3A C32G	0.176
G2U G28C	0.0331
G2U G28A	0.0437
G3A A23C	0.525
G3A A23G	0.401
G3A C12G	0.326
G3A C12U	0.723
G3A C12A	0.324
G3A G5A	0.101
G3A G5U	0.0857
G2U G47U	0.059
G2U G47C	0.0826
G3A G65U	0.285
G3A G65A	0.527
G3A C57A	0.11
G3A C57G	0.175
G3A C57U	0.0942
G3A C34G	0.256

Variant	self-cleavage
G3A C34A	0.516
G2U G56A	0.0814
G2U G56U	0.0789
G2U G56C	0.0334
G3A G25U	0.054
G3A	0.693
G3A U21G	0.129
G3A U21C	0.371
G3A U21A	0.455
G2U U62G	0.0547
G2U G58C	0.0697
G2U G58A	0.0612
G2U G58U	0.0822
G3A C29G	0.122
G3A C29U	0.145
G3A C29A	0.149
G3A A59U	0.198
G3A A59G	0.362
G2U U36A	0.023
G2U U36C	0.0828
G3A G58U	0.701
